# Test results: patent publication US20210347873A1 (SHANGHAI PHARMAEXPLORER, published 2021)
# B1: 89A2G5E7 (antibody, V domains shown)
# VH: QVQLKESGPGLVAPSQSLSITCTVSGLSLNSHDISWIRQPPGKGLEWLGVIWSGGGTKYNSAFMSRLSISKDNSKSQVFLKMNSLHTDDTAIYYCVRTPSMITYSAMDYWGQGTSVTVSS
# VL: EIVLTQSPALMAASPGEKVTITCSVSSSISSRNLHWYQQKSQTSPKAWIHATSNLASGVPVRFSGSGSGTSYSLTISSMEAEDAATYYCQQWSSYPLTFGSGTKLEIK
# notes: Mouse hybridoma monoclonal antibody purified on Protein G
# B2: 93C6F10D3 (antibody, V domains shown)
# VH: EVQLVESGGGLVTPGGSLKLSCVASGFAFSTYGMSWVRQTPERRLEWVAYISGGGGSIYYPDSVKGRFTISRDNAKNILYLQMSSLKSEDTAMYHCTRHPDLLLRYDYALDHWGQGTSVTVSS
# VL: DIQMTQSPASLSASVGETVTITCRASENIHIYLAWYQQKQGKSPQLLVYNGKTLADGVPSRFSGSGSGTQYSLKINTLQPEDFGNYYCQHFWNSTWTFGGGTKLEIK
# notes: as for B1
# B3: 97E7B3F2 (antibody, V domains shown)
# VH: EVQLQQSGPELVKSGASVKISCKASGYTFTDHKMHWVKQSHGKSLEWIGYISPYNGGTGYNQKFKSKVTLTVDISSSTAYMELRSLTSEDSAVYYCARWGFYDVMDSWGQGTSVTVSS
# VL: DVLLTQTPLSLPVSLGDQASISCRSSQTIVHIIGDTYLEWYLQKPGQSPKLLIYKVSNRFSGVPDRFSGSGAGTDFTLKISRVEAEDLGVYYCFQGSHVPRTFGGGTKLEIK
# notes: as for B1
# Molecular target: hBLyS-ECD (His-tagged extracellular domain of human BLyS protein, Ala134-Leu285) (human, UniProt Q9Y275 134-285)
# Assay: cell-based or functional assay
"mouse B lymphocyte proliferation (OD450 nm), antibody 0 nM","mouse B lymphocyte proliferation (OD450 nm), antibody 0.000256 nM","mouse B lymphocyte proliferation (OD450 nm), antibody 0.00128 nM","mouse B lymphocyte proliferation (OD450 nm), antibody 0.0064 nM","mouse B lymphocyte proliferation (OD450 nm), antibody 0.032 nM","mouse B lymphocyte proliferation (OD450 nm), antibody 0.16 nM","mouse B lymphocyte proliferation (OD450 nm), antibody 0.8 nM","mouse B lymphocyte proliferation (OD450 nm), antibody 4 nM","mouse B lymphocyte proliferation (OD450 nm), antibody 20 nM","mouse B lymphocyte proliferation (OD450 nm), antibody 100 nM",Binder
3440 OD450 nm,3120 OD450 nm,3700 OD450 nm,3700 OD450 nm,3360 OD450 nm,3270 OD450 nm,530 OD450 nm,431 OD450 nm,433 OD450 nm,414 OD450 nm,B1
3030 OD450 nm,3420 OD450 nm,3550 OD450 nm,4050 OD450 nm,4360 OD450 nm,3530 OD450 nm,799 OD450 nm,514 OD450 nm,466 OD450 nm,416 OD450 nm,B2
2960 OD450 nm,3380 OD450 nm,3760 OD450 nm,3770 OD450 nm,2940 OD450 nm,2990 OD450 nm,438 OD450 nm,364 OD450 nm,383 OD450 nm,377 OD450 nm,B3

# Molecular target: T1, cynomolgus BLyS (full length, arginine to histidine at position 132) on CHO-K1 cells (cynomolgus, UniProt Q9Y275 1-285 (human entry))
# T1 construct: also called cyno BLyS; CHO-K1 cynoBLyS
# T1 chain: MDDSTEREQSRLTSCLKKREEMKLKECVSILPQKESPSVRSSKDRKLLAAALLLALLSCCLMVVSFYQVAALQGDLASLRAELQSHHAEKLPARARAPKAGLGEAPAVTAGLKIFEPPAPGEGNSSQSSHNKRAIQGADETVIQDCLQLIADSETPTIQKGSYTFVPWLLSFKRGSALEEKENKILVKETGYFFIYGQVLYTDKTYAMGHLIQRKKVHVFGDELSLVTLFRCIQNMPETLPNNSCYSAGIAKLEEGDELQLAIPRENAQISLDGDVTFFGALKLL
# Assay: flow cytometry, CHO-K1 cynoBLyS cells, antibody 0.107 nM
# Method: (§1) The medium was aspirated completely, and the cells were rinsed once with PBS buffer (purchased from Invitrogen) and then treated with cell dispersion solution (TrypLE™ Express Enzyme, purchased from Life technology) and collected. The detailed steps are as follows: the cells were rinsed once with PBS buffer, after counting, the cells were diluted to 2×10⁶ cells/ml with PBS buffer, blocked with 2% (w/w) fetal bovine serum and incubated on ice for 30 minutes. 200 μL of which per well was aliquoted into a 96-well FACS plate and centrifuged at 2000 rpm at 4° C., then each 100 μL of the lead antibodies obtained from Embodiment 1 and 2 were aliquoted into each well and incubated on ice for 1 hour. […] After centrifuged and rinsed 3 times with FACS buffer, cells were suspended with 200 μL of FACS buffer and the results were detected and analyzed by FACS (FACS Calibur, purchased from BD). It was shown in Tables 12-13 that the lead antibody could bind to human BLyS protein on the cell surface and the lead antibody could cross-react with cynomolgus BLyS. The data in the table is MFI, the average fluorescence intensity of the cell population.
row,MFI,Binder
1,125 MFI,B1
2,308 MFI,B2
3,288 MFI,B3

# Molecular target: T2, human BLyS (full length, arginine to histidine at position 132) on CHO-K1 cells (human, UniProt Q9Y275 1-285)
# T2 construct: also called hBLyS; CHO-K1 hBLyS
# Assay: flow cytometry, CHO-K1 hBLyS cells, antibody 0.0213 nM
# Method: as §1
row,MFI,Binder
1,48.1 MFI,B1
2,76.6 MFI,B2
3,78.7 MFI,B3

# Molecular target: T2, human BLyS (full length, arginine to …)
# Assay: flow cytometry, CHO-K1 hBLyS cells, antibody 0 nM
# Method: as §1
row,MFI,Binder
1,31 MFI,B1
2,31.6 MFI,B2
3,32.4 MFI,B3

# Molecular target: T2, human BLyS (full length, arginine to …)
# Assay: flow cytometry, CHO-K1 hBLyS cells, antibody 66.7 nM
# Method: as §1
row,MFI,Binder
1,431 MFI,B1
2,392 MFI,B2
3,406 MFI,B3

# Molecular target: T2, human BLyS (full length, arginine to …)
# Assay: flow cytometry, CHO-K1 hBLyS cells, antibody 13.3 nM
# Method: as §1
row,MFI,Binder
1,406 MFI,B1
2,327 MFI,B2
3,349 MFI,B3

# Molecular target: mouse BLyS protein (mouse, UniProt Q9WU72 69-309)
# Sequence (Q9WU72 69-309): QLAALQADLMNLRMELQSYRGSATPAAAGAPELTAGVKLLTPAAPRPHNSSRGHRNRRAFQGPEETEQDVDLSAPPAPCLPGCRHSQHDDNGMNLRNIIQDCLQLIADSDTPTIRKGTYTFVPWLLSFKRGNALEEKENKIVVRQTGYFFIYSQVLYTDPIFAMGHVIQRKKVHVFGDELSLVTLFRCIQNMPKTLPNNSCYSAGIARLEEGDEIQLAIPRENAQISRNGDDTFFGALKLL
# Assay: cell-based or functional assay
"mouse B lymphocyte proliferation (OD450 nm), antibody 0 nM","mouse B lymphocyte proliferation (OD450 nm), antibody 0.000256 nM","mouse B lymphocyte proliferation (OD450 nm), antibody 0.00128 nM","mouse B lymphocyte proliferation (OD450 nm), antibody 0.0064 nM","mouse B lymphocyte proliferation (OD450 nm), antibody 0.032 nM","mouse B lymphocyte proliferation (OD450 nm), antibody 0.16 nM","mouse B lymphocyte proliferation (OD450 nm), antibody 0.8 nM","mouse B lymphocyte proliferation (OD450 nm), antibody 4 nM","mouse B lymphocyte proliferation (OD450 nm), antibody 20 nM","mouse B lymphocyte proliferation (OD450 nm), antibody 100 nM",Binder
2090 OD450 nm,2170 OD450 nm,2270 OD450 nm,2170 OD450 nm,2390 OD450 nm,2370 OD450 nm,2640 OD450 nm,2480 OD450 nm,2640 OD450 nm,2480 OD450 nm,B1
2310 OD450 nm,2310 OD450 nm,2290 OD450 nm,2510 OD450 nm,2540 OD450 nm,2540 OD450 nm,2530 OD450 nm,2640 OD450 nm,2620 OD450 nm,2740 OD450 nm,B2
2130 OD450 nm,2200 OD450 nm,2150 OD450 nm,2310 OD450 nm,2580 OD450 nm,2360 OD450 nm,2310 OD450 nm,2410 OD450 nm,2290 OD450 nm,2310 OD450 nm,B3

# Molecular target: T1, cynomolgus BLyS (full length, arginine …)
# Assay: flow cytometry, CHO-K1 cynoBLyS cells, antibody 0.00427 nM
# Method: as §1
row,MFI,Binder
1,32.1 MFI,B1
2,46.9 MFI,B2
3,53 MFI,B3

# Molecular target: T2, human BLyS (full length, arginine to …)
# Assay: flow cytometry, CHO-K1 hBLyS cells, antibody 0.107 nM
# Method: as §1
row,MFI,Binder
1,92.1 MFI,B1
2,175 MFI,B2
3,174 MFI,B3

# Molecular target: T1, cynomolgus BLyS (full length, arginine …)
# Assay: flow cytometry, CHO-K1 cynoBLyS cells, antibody 0 nM
# Method: as §1
row,MFI,Binder
1,21.2 MFI,B1
2,21.9 MFI,B2
3,22.8 MFI,B3

# Molecular target: T1, cynomolgus BLyS (full length, arginine …)
# Assay: flow cytometry, CHO-K1 cynoBLyS cells, antibody 66.7 nM
# Method: as §1
row,MFI,Binder
1,884 MFI,B1
2,785 MFI,B2
3,770 MFI,B3

# Molecular target: T2, human BLyS (full length, arginine to …)
# Assay: flow cytometry, CHO-K1 hBLyS cells, antibody 0.00427 nM
# Method: as §1
row,MFI,Binder
1,37 MFI,B1
2,44.9 MFI,B2
3,48.2 MFI,B3

# Molecular target: T1, cynomolgus BLyS (full length, arginine …)
# Assay: flow cytometry, CHO-K1 cynoBLyS cells, antibody 2.67 nM
# Method: as §1
row,MFI,Binder
1,726 MFI,B1
2,729 MFI,B2
3,705 MFI,B3

# Molecular target: T2, human BLyS (full length, arginine to …)
# Assay: flow cytometry, CHO-K1 hBLyS cells, antibody 2.67 nM
# Method: as §1
row,MFI,Binder
1,374 MFI,B1
2,317 MFI,B2
3,332 MFI,B3

# Molecular target: T1, cynomolgus BLyS (full length, arginine …)
# Assay: flow cytometry, CHO-K1 cynoBLyS cells, antibody 0.0213 nM
# Method: as §1
row,MFI,Binder
1,53.6 MFI,B1
2,112 MFI,B2
3,112 MFI,B3

# Molecular target: T2, human BLyS (full length, arginine to …)
# Assay: flow cytometry, CHO-K1 hBLyS cells, antibody 0.534 nM
# Method: as §1
row,MFI,Binder
1,192 MFI,B1
2,306 MFI,B2
3,318 MFI,B3

# Molecular target: T1, cynomolgus BLyS (full length, arginine …)
# Assay: flow cytometry, CHO-K1 cynoBLyS cells, antibody 13.3 nM
# Method: as §1
row,MFI,Binder
1,829 MFI,B1
2,714 MFI,B2
3,710 MFI,B3

# Molecular target: T1, cynomolgus BLyS (full length, arginine …)
# Assay: flow cytometry, CHO-K1 cynoBLyS cells, antibody 0.534 nM
# Method: as §1
row,MFI,Binder
1,355 MFI,B1
2,706 MFI,B2
3,688 MFI,B3
